Measurements published in PMC9114487, “Generation of a High-Affinity Nanobody Against CD147 for Tumor Targeting and Therapeutic Efficacy Through Conjugating Doxorubicin” (Frontiers in Immunology, 2022).

Tests used:
[1] = target: C78 (C-terminal ecto-domain protein of CD147); experiment: BLI; ForteBio Octet; biotin-labeled CD147 or C78 immobilized on the sensors (200 s); Nb 11-1 at different concentrations in PBST, 200 s; PBST 100 s; room temperature, shaking 1,000 rpm
[2] = target: T1, ecto-domain protein of CD147 (Homo sapiens (assumed), isoform 2, UniProt P35613-2, biotin (Sulfo-NHS-LC-Biotin) in the BLI only); experiment: as above; details: both partners purified
T1 construct: CD147 (EMMPRIN, basigin), ecto-domain protein; also called CD147 protein; EMMPRIN
Target sequence in this assay (P35613 whole entry, looked up, tested part not stated, canonical isoform): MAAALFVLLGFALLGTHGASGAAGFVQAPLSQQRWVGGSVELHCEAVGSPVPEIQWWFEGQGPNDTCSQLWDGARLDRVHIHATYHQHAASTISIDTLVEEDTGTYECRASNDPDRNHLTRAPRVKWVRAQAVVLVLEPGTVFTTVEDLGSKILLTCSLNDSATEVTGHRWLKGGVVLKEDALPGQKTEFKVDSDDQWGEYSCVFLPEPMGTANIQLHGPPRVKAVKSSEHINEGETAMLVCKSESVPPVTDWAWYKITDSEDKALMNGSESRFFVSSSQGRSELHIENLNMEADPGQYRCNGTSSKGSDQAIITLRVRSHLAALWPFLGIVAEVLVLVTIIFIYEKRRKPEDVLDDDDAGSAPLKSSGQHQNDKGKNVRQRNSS

[3] = target: T1, ecto-domain protein of CD147; experiment: BLI; kinetics between CD147 and EGFP-11-1 (Figure 3F); who was immobilised is not told for this pair; details: both partners purified
Target sequence in this assay (P35613 whole entry, looked up, tested part not stated, canonical isoform): as above

[4] = target: T1, ecto-domain protein of CD147
Target sequence in this assay (P35613 other isoform, or with tags, fused parts or gaps): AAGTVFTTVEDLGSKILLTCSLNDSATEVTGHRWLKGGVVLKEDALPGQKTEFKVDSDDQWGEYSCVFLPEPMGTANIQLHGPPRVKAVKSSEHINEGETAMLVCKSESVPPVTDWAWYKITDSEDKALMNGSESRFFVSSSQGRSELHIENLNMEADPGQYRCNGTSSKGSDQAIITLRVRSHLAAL

Binder | binding result [4] | further results
anti-CD147 nanobody 11-1 (VHH, Selected by phage display from an immune VHH library; The immunised animal is called an alpaca in the methods, a camel in the results and a Bactrian camel in the discussion; About 13 kDa by SDS-PAGE; Surmise: pET-15b usually adds an N-terminal His tag; also called Nb 11-1; anti-CD147-VHH Nb (11-1); source: E. coli BL21(DE3), pET-15b, purified (His-Trap HP column)) VHH: QVQLQESGGGSVQAGGSLRLSCAVSGYTYSSCSMDWYRQAPGKERELVSSISSGGNTYYEDSVKGRFTISQDNAKNTVYLQMNSLKPEDTASYYCKMWCPGNKSYWGQGTQVTVSS | – | Kd [1]: 1.78 nM; koff [1]: 0.000104 s⁻¹; kon [1]: 58200 M⁻¹ s⁻¹; Kd [2]: 0.636 nM; koff [2]: 2.2e-05 s⁻¹; kon [2]: 34600 M⁻¹ s⁻¹
EGFP-VHH fusion protein EGFP-11-1 (VHH, as the VHH of m1; About 40 kDa by SDS-PAGE; also called 11-1-EGFP; EGFP-11-1 Nbs; source: E. coli BL21(DE3), pET-25b, purified (His-Trap HP column); not shown: EGFP, C-terminal, kept) VHH: QVQLQESGGGSVQAGGSLRLSCAVSGYTYSSCSMDWYRQAPGKERELVSSISSGGNTYYEDSVKGRFTISQDNAKNTVYLQMNSLKPEDTASYYCKMWCPGNKSYWGQGTQVTVSS | – | Kd [3]: 11.1 nM
V-4 (VHH) VHH: QVQLQESGGGSVQAGGSLRLSCSVSGGTFSSCSMDWFRQAPGKVRELVSSISSGGNTYYEDSVKGRFTISQDNAKTTVYLQMNSLKPEDTAMYYCKMFCPWNKSYWGQGTQVTVSS | binds | –
V-17 (VHH) VHH: QVQLQESGGGSVQAGGSLRLSCAVSGYTYSSCSMDWYRQAPGKERELVSSISSGGNTYYEDSVKGRFTISQDNAKNTVYLRMNSLKPEDTAIYYCKMWCPWNKSYWGQGTQVTVSS | binds | –
V-10 (VHH) VHH: QVQLQESGGGSVQAGGSLRLSCSVSGSTFSSCSMDWFRQAPGKERGLVSSISSGGNTYYEDSVKGRFTISQDNAKNTVYLQMNSLKPEDTAMYYCKMWCPGNKSYWGQGTQVTVSS | binds | –
V-24 (VHH) VHH: QVQLQESGGGLVLPGGSLRLSCAAFGFIFSDFDMSWVRQAPGKGLEWVSSISRYGRTSSADSVKGRFTISRDNAKNTLYLQMHSLKTDDTAVYYCATGNFCSGGRCYIDRGQGTQVTVSS | binds | –
V-28 (VHH) VHH: QVQLQESGGGSVQAGGSLRLSCAAFGFIFSNYDMSWVRQAPGKGLEWVSSISRYGRTSSADSVKGRFTISRDNAKNTLYLQMNSLKTDDTAVYYCTTGNFCSGGRCYSNRGQGTQVTVSS | binds | –
V-25 (VHH) VHH: QVQLQESGGGLVQPGGSLRLSCAAFGFIFSNFDMSWVRQAPGKGLEWVSSISRYGRTSSADSVKGRFTISRDNAKNTLYLEMNSLKSADTAVYYCATGNFCSGGRCYINRGQGTQVTVSS | binds | –
V-27 (VHH) VHH: QVQLQESGGGLVQPGGSLRLSCAAFGFIFSNYDMSWVRQAPGKGLEWVSSISRYGRTSSADSVKGRFTISRDNAKNTLYLQMNSLKTDDTAVYYCATGNFCSGGRCYIDRGQGTQVTVSS | binds | –
V-29 (VHH) VHH: QVQLQESGGGLVQPGGSLRLSCAAFGFIFSNYDMSWVRQAPGKGFEWVSSISRYGRTSNADAVKGRFTISRDNAKNTLYLQMNSLKTDDTAVYYCATGNFCSGGRCYINRGQGTQVTVSS | binds | –
V-26 (VHH) VHH: QVQLQESGGGSVQAGGSLRLSCAAFGFIFSNYDMSWVRQAPGKGFEWVSSISRYGRTSNADAVKGRFTISRDNAKNTLYLQMNSLKTDDTAVYYCATGNFCSGGRCYINRGQGTQVTVSS | binds | –
V-1 (VHH) VHH: QVQLQESGGGSVQAGGSLRLSCRASGYTFSRHCMGWFRQGPGKEREVVATIYTFNGRTYYADSVKGRFTVSQDNAQNSLYLQMDSLKPEDTAMYYCAAARIGWTSVSGSCPRMGDVNKYWGQGTQVTVSS | binds | –
V-2 (VHH) VHH: QVQLQESGGGSVQAGGSLRLSCRASGYTFSRHCMGWFRQGPGKEREVVATIYTFNGHTYYADSVKGRFTISQDNPQNSLTLQMDSLKPEDTAMYYCAAARIGWTSVSGSCPRMGDVNKYWGQGTQVTVSS | binds | –
V-19 (VHH) VHH: QVQLQESGGGSVQAGGSLRLSCRAPGYTFSRHCMGWFRQGPGEEREVVATIYTFNGRTTYADSVKGRFTISQDNAQNSLYLQMDSLKPEDTAMYYCAAARIGWTSASGSCPRMGDENKYWGQGTQVTVSS | binds | –
V-11 (VHH) VHH: QVQLQESGGGSVQAGGSLRLSCRASGYTFSRHCMGWFRQGPGKERELVASIYTFNGRTYYADSVKGRFTISQDNAQNSLYLQMDSLKPEDTAMYYCAAARIGWTSVSGSCPRMGDENKYWGQGTQVTVSS | binds | –
V-3 (VHH) VHH: QVQLQESGGGSVQAGGTLRLSCRVSGYTFSRHCMGWFRQGPGKEREVVATIYTFNGRTSYADSVKGRFTISQDNAQNSLYLQMDSLKPEDTATYYCAAARIGWTSVSGSCPRMGDENKYWGQGTQVTVSS | binds | –
V-22 (VHH) VHH: QVQLQESGGGSVQAGGSLRLSCRASGYTFSRHCMGWFRQTPGKEREVVATIYTFNGHTYYADSVKGRFTISQDNAQNSLYLQMDSLKPEDTAMYYCAAARIGWTSVSGSCPRMGDVNKYWGQGTQVTVSS | binds | –
V-23 (VHH) VHH: QVQLQESGGGSVQAGGSLRLSCRASGYTFSEHCMGWFRQGPGKERELVASIYTFNGRTYYADSVKGRFTISQDNAQNSLYLQMDSLKPEDTAMYYCAAARIGWTSVSGSCPRMGDVNKYWGQGTQVTVSS | binds | –
V-14 (VHH) VHH: QVQLQESGGGSVQAGGSLRLSCRASGYTFSRHCMGWFRQGPGKEREVVATIYTFNGRTYYADSVKGRFTISQDNAQNSLYLQMDSLKPEDTAMYYCAAARIGWTSVSGSCPRMGDVNKYWGQGTQVTVSS | binds | –
V-13 (VHH) VHH: QVQLQESGGGSVQAGGSLRLSCRASGYTFSEHCMGWFRQGPGKEREVVATIYTFNGRTYYADSVKGRFTISQDNAQNSLYLQMDSLKPEDTAMYYCAAARIGWTSVSGSCPRMGDVNKYWGQGTQVTVSS | binds | –
V-5 (VHH) VHH: QVQLQESGGGSVQAGETLTLSCTASGYTFSSSNCMGWFRQAPGQEREDVAIISVRGGITYYADSVKGRFTISRDNAKNTLSLQMNSLKPEDTAVYYCAADNPKYRDLYNAHCNWSYRYWGQGTQVTVSS | binds | –
V-21 (VHH) VHH: QVQLQESGGGSVQAGGSLRLSCAASGYTFSSSNCMGWFRQAPGKEREDVAIISVRGGITYYADSVKGRFTISRDSAKNTLSLQMNSLKSEDTAVYYCAADNPKYRQLSNAHCNWSYRYWGQGTQVTVSS | binds | –
V-18 (VHH) VHH: QVQLQESGGGSVQAGGSLRLSCAASGYTFSSSNCMGWFRQAPGKEREDVAIISVRGGITYYTDSVKGRFTISRDNAKNTLSLQMNNLKPDDTAVYYCAADNPKYRDLYGAHCNWSYRYWGQGTQVTVSS | binds | –
V-7 (VHH) VHH: QVQLQESGGGSVQAGGSLRLSCAASGYTFSSSNCMGWFRQAPGKEREDVAIISVRGGITYYADSVKGRFTISRDSAKNTLSLQMNSLKPEDTAVYYCAADNPKYRALSDAHCNWSYRYWGQGTQVTVSS | binds | –
V-20 (VHH) VHH: QVQLQESGGGSVQAGGSLRLSCAASGYTFSSSNCMGWFRQAPGQEREDVAIISVRGGITYYVDSVKGRFTISRDNAKNTLSLQMNNLKPEDTAVYYCAADNPKYRDLHGGHCNWSYRYWGQGTQVTVSS | binds | –
V-9 (VHH) VHH: QVQLQESGGGSVQAGGSLRLSCAASGYTFSSSNCMGWFRQAPGQEREDVAIISVRGGITYYVDSVKGRFTISRDNAKNTLSLQMNNLKPEDTAVYYCAADNPKYRDLYDAHCNWSYRYWGQGTQVTVSS | binds | –
V-15 (VHH) VHH: QVQLQESGGGSAQAGGSLRLSCAASGYTFSSSNCMGWFRQAPGKEREGVAIISVRGGITYYADSVKGRFTISRDNAKNTLSLQMNSLKPEDTAVYYCAADNPKYRDLYDAHCNWSYRYWGQGTQVTVSS | binds | –
